From US20190314260A1, “ENGINEERED TREATMENTS FOR HAIR REPAIR AND LONG-LASTING COLOR RETENTION” (Massachusetts Institute of Technology, priority 2018, published 2019)
No end group written: not given here.

Columns and labels:
[1] = test system: exposed keratin proteins on damaged hair; test: keratin binding domain absorption test (FITC-conjugated peptides, fluorescence microscopy), damaged hair; conditions: FITC conjugate, 37° C. for 1 hr, hair washed 10 times
Description: (§1) The peptide-FITC conjugate is not seen on healthy hair because the hydrophobic surface of healthy hair cuticles prevents binding of the peptide. However, peptide-FITC conjugates are shown to be absorbed in damaged hair because the peptide bonds to exposed keratin proteins on damaged hair shafts. […] This is due to binding of the C-terminal cysteine present on Peptide 2 to the exposed keratin protein on the damaged hair.
To provide damaged hair for treatment using the exemplary engineered keratin-binding construct, hair was incubated with 10% H2O2(v/v) in 0.1M Na2CO3/NaHCO3 (pH 9.0) buffer at 50° C. for 1 hr, and then the hairs were washed in deionized (DI) water.
(§2) Samples of healthy and damaged hair were incubated with the FITC-conjugated peptides at 37° C. for 1 hr, followed by washing the hair 10 times (FIG. 5). The results are provided in the images obtained by fluorescent microscopy shown in the right part of FIG. 5.

[2] = keratin binding domain absorption test (FITC-conjugated peptides, fluorescence microscopy), healthy hair; conditions: FITC conjugate, 37° C. for 1 hr, hair washed 10 times
Description: as §1, §2

NIH3T3 fibroblast cell = test: MTT assay, NIH3T3 fibroblast cell viability; format: cell-based; conditions: in the presence of the protein
damaged hair = test: affinity of keratin binding protein tagged with a fluorescent dye for damaged and undamaged hair (fluorescence microscopy)
Description: Keratin binding protein tagged with a fluorescent dye was incubated with damaged and undamaged (virgin) hair, and observed by fluorescence microscopy. The results are depicted in FIG. 8, with microscopy images shown on the left and intensity of corrected fluorescence shown on the right. Corrected fluorescence=Integrated Density−(selected area X Mean fluorescence of background).
The damaged hair incubated with keratin binding protein tagged with a fluorescent dye for varying amounts of time was then subjected to washing with shampoo.

IL-6 in fibroblast cells = test: IL-6 ELISA (immune response); format: cell-based; conditions: LPS positive control
Description: (§3) Keratin-binding protein (B22) was tested for immune response by performing an IL-6 ELISA and IFN-γ ELISA. The effects of KBP and KBP-lipid conjugate on the immune response was assessed by measuring levels of IL-6 and IFN-γ in fibroblast cells. No protein was added to the cells as a negative control. Lipopolysaccharides (LPS) were used as a positive control.

[3] = test system: IFN-γ in fibroblast cells; test: IFN-γ ELISA (immune response); format: cell-based; conditions: LPS positive control
Description: as §3

[4] = solubility test in oil-based solvents; format: physicochemical; conditions: 2.5 mg protein/10 mL solvent
Description: Solubility tests were performed by adding keratin-binding protein to 7 different solvents at concentrations of 2.5 mg protein/10 mL solvent. […] KBP was soluble in polysorbate 40 (Tween® 40) and Solubilisant CLR, with only a few visible particles present in solution.

Peptide 2: same keratin binding domain as peptide 1 plus a C-terminal cysteine, AKTKKVELFPKC; SEQ ID NO: 5
affinity to damaged hair compared to Peptide 1 [1]: higher affinity | binding affinity to the damaged hair [1]: strong binding affinity

peptide1-FITC: Peptide1 (AKTKKVELFPK) conjugated to fluorescein isothiocyanate (FITC) (also: FITC conjugate, site not given here)
binding to healthy hair [2]: Neither peptide1-FITC nor peptide1-FITC is shown as binding

B1: KBP: engineered keratin-binding protein without tyrosine residues; keratin-binding domain SEQ ID NO: 1 repeated three times, expressed in E. coli (protein)
chain: MAKTHHHHHHQGQVQHLQAAFSQYKKVELFPKGGQGQVQHLQAAFSQYKKVELFPKGGQGQVQHLQAAFSQYKKVELFPKGGYYYYC
NIH3T3 fibroblast cell viability (NIH3T3 fibroblast cell): increased | binding to damaged hair versus healthy hair (damaged hair): binds more readily to damaged hair | production of IL-6 (IL-6 in fibroblast cells): No production | production of IFN-γ [3]: No production | solubility in butylene glycol [4]: not soluble | solubility in glycerin [4]: not soluble | solubility in hexylene glycol [4]: not soluble | solubility in polysorbate 20 (Tween® 20) [4]: not soluble | solubility in Solubilisant CLR ([4]; only a few visible particles): soluble | solubility in polysorbate 40 (Tween® 40) ([4]; only a few visible particles): soluble

B2: KBPY: keratin-binding protein with tyrosine residues, SEQ ID NO: 2: MAKT-6His-three keratin-binding domain repeats-YYYYC (protein)
chain: B1 chain
NIH3T3 fibroblast cell viability (NIH3T3 fibroblast cell): increased
